Measured values taken from patent US20240076392A1, “ANTI-CD123 BINDING MOLECULES AND USES THEREOF” (IGM Biosciences, Inc., priority 2021, published 2024).
Changes are numbered by the printed parent chain. Values belong to the binder of their own block, whether it stands above or below them.

Assays:
[1] = molecular target: human CD123 on CHO cells expressing human CD123 (human) (UniProt P26951); experiment: flow cytometry on CHO cells expressing human CD123, 4-parameter fit
[2] = molecular target: human CD123 on CHO cells expressing human CD123 (human) (UniProt P26951); experiment: flow cytometry on CHO cells expressing human CD123, 4-parameter fit (direct binding; column headed IC50)

Chain of human CD123 on CHO cells expressing human CD123 (human) (P26951 19-378): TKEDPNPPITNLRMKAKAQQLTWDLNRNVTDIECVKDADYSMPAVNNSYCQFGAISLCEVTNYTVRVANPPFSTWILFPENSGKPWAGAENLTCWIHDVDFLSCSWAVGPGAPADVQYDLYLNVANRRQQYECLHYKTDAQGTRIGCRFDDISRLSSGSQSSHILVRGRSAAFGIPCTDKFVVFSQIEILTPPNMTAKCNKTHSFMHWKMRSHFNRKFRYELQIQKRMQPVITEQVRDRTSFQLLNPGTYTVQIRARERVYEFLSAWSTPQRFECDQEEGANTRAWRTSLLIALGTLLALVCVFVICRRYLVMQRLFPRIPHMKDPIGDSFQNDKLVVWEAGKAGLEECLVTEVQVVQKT

Max binding intensity (MFI) [1]: 980000 MFI
EC50 (half-maximal binding concentration) [2]: 6.8 nM
B1: h32716-4-2 IgG (antibody, V domains shown)
VH: QVQLVQSGPELKKPGASVKVSCKASGYIFTNYGMNWVRQAPGQGLEWMGWINTYTGESTYSADFKGRFVFSLDTSVSTAYLQISSLKAEDTAVYYCARSGGYDPMDYWGQGTLVTVSS
VL: DIQMTQSPSSLSASVGDRVTITCRASESVDNYGNTFMHWYQQKPGKAPKLLIYRASNLESGVPSRFSGSGSGTDFTFTISSLQPEDIATYYCQQSNEDPPTFGQGTKVEIK

Max binding intensity (MFI) [1]: 1e+06 MFI
EC50 (half-maximal binding concentration) [2]: 11 nM
B2: h32716-6-2 IgG (antibody, V domains shown)
VH: B1 VH with R38K, L45F, E46K
VL: B1 VL

Max binding intensity (MFI) [1]: 1.1e+06 MFI
EC50 [2]: 7.2 nM
B3: h32716-5-2 IgG (antibody, V domains shown)
VH: B1 VH with R38K
VL: B1 VL

Max binding intensity (MFI) [1]: 910000 MFI
EC50 [2]: 11 nM
B4: 32716 IgG (antibody, V domains shown)
VH: QIQLVQSGPELKKPGETVKISCKASGYIFTNYGMNWVKQAPGKSFKWMGWINTYTGESTYSADFKGRFAFSLETSASTAYLHINDLKNEDTATYFCARSGGYDPMDYWGQGTSVTVSS
VL: DIVLTQSPASLAVSLGQRATISCRASESVDNYGNTFMHWYQQKPGQPPKLLIYRASNLESGIPARFSGSGSRTDFTLTINPVEADDVATYYCQQSNEDPPTFGAGTKLELK

Max binding intensity (MFI) [1]: 950000 MFI
EC50 (half-maximal binding concentration) [2]: 7.4 nM
B5: h32716-1-1 IgG (antibody, V domains shown)
VH: QVQLVQSGAEVKKPGSSVKVSCKASGYIFTNYGMNWVRQAPGQGLEWMGWINTYTGESTYSADFKGRVTITADESTSTAYMELSSLRSEDTAVYYCARSGGYDPMDYWGQGTLVTVSS
VL: DIVMTQSPDSLAVSLGERATINCRASESVDNYGNTFMHWYQQKPGQPPKLLIYRASNLESGVPDRFSGSGSGTDFTLTISSLQAEDVAVYYCQQSNEDPPTFGQGTRLEIK

Max binding intensity (MFI) [1]: 930000 MFI
EC50 (half-maximal binding concentration) [2]: 11 nM
B6: h32716-2-1 IgG (antibody, V domains shown)
VH: B5 VH with R38K, V68F, I70F, A72L
VL: B5 VL

Max binding intensity (MFI) [1]: 940000 MFI
EC50 (half-maximal binding concentration) [2]: 10 nM
B7: h32716-3-1 IgG (antibody, V domains shown)
VH: B5 VH with R38K, L45F, E46K, V68F, I70F, A72L
VL: B5 VL
